The text below walks through data of article doi:10.1101/2025.04.11.648320 (bioRxiv, 2025).

Several values for one entry are separate records, joined by “and”; a condition that tells them apart may be missing. Identical values can stand only once.

The series deals with the molecule itself. The series is described as follows: SDS-PAGE with immunoblot. A general note: A western blot detects proteins with antibodies after separation by electrophoresis.

B1: HIR2-HA expressed in Nicotiana benthamiana (natural protein, Arabidopsis thaliana, UniProt Q9SRH6 1-285, looked up)
chain: MGNLFCCVLVKQSDVAVKERFGKFQKVLNPGLQFVPWVIGDYVAGTLTLRLQQLDVQCETKTKDNVFVTVVASIQYRVLADKASDAFYRLSNPTTQIKAYVFDVIRACVPKLNLDDVFEQKNEIAKSVEEELDKAMTAYGYEILQTLIIDIEPDQQVKRAMNEINAAARMRVAASEKAEAEKIIQIKRAEGEAESKYLSGLGIARQRQAIVDGLRDSVLGFAGNVPGTSAKDVLDMVMMTQYFDTMRDIGATSKSSAVFIPHGPGAVSDVAAQIRNGLLQANNAS
One may read the stoichiometry N as the number of molecules, sites or subunits per partner or assembly. For the protein B1, the “stoichiometry N” value was 2 and 4 and 6.
